We go through 20 variants from the supplement of paper PMC7125110.

B1: glmS ribozyme (parent)
chain: AUAAAAGCGCCAGAACUACAGAAAUGUAGUUGACGAGGAGGAGGUUUAUCGAAUUUUCGGCGGAUGCCUCCAAA

± gives the standard error. Variants at the floor of the assay were thinned out. Some results are limits rather than exact numbers.

What all share (details): with glucosamine-6-phosphate
Data set [1] covers variants of B1. Nature of the data set: self-cleavage kobs at 40 uM GlcN6P; higher = faster cleavage; RNA array. The gist of the method:
(§1)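 Tracking of barcoded ribozyme variants used a hybridised Cy3 probe at 37 °C, after in situ transcription by E. coli RNA polymerase on sequenced MiSeq chips. The flowed solution held 40 μM to 10 mM glucosamine-6-phosphate in HEPES/KCl/Mg(OAc)2 buffer, and imaging ran over ~14 h. kobs was taken from exponential decay fits of normalised per-tile medians, and kcat and KM from weighted Michaelis–Menten fits.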

Data set [2] covers variants of B1. Description: self-cleavage kobs at 10000 uM GlcN6P; higher = faster cleavage; RNA array. The gist of the method:
as §1

In data set [3] the parent is B1. Description: self-cleavage kobs at 160 uM GlcN6P; higher = faster cleavage; RNA array. The gist of the method: as §1
In data set [4] the parent is B1. Nature of the data set: self-cleavage kobs at 640 uM GlcN6P; higher = faster cleavage; RNA array. In outline: as §1
Data set [5] covers variants of B1. Nature of the data set: self-cleavage kobs at 2500 uM GlcN6P; higher = faster cleavage; RNA array. In outline: as §1

Turning to C16U U31G C50G C70A, the “self-cleavage kobs at 40 uM GlcN6P” value with glucosamine-6-phosphate [1] is 0.000109 ± 2.3e-05 s⁻¹. Besides, the “self-cleavage kobs at 10000 uM GlcN6P” value with glucosamine-6-phosphate [2] worked out at 6.25e-05 ± 1.3e-05 s⁻¹.
For C34U G41U G62U, the “self-cleavage kobs at 40 uM GlcN6P” value with glucosamine-6-phosphate [1] was less than 1e-05 s⁻¹.
Turning to G35U A64C, the “self-cleavage kobs at 40 uM GlcN6P” value with glucosamine-6-phosphate [1] is less than 1e-05 s⁻¹. Moreover, the “self-cleavage kobs at 160 uM GlcN6P” value with glucosamine-6-phosphate [3] was less than 1e-05 s⁻¹. For the same variant, the “self-cleavage kobs at 640 uM GlcN6P” value in the data set with glucosamine-6-phosphate [4] is less than 1e-05 s⁻¹. Further, the “self-cleavage kobs at 2500 uM GlcN6P” value in the data set with glucosamine-6-phosphate [5] is less than 1e-05 s⁻¹. In addition, in the data set with glucosamine-6-phosphate [2], the “self-cleavage kobs at 10000 uM GlcN6P” value is less than 1e-05 s⁻¹.
As for G9A G13C, in the data set with glucosamine-6-phosphate [1], the “self-cleavage kobs at 40 uM GlcN6P” value is less than 1e-05 s⁻¹. Also, the “self-cleavage kobs at 160 uM GlcN6P” value with glucosamine-6-phosphate [3] is less than 1e-05 s⁻¹. Besides, in the data set with glucosamine-6-phosphate [4], the “self-cleavage kobs at 640 uM GlcN6P” value is less than 1e-05 s⁻¹. The “self-cleavage kobs at 2500 uM GlcN6P” value with glucosamine-6-phosphate [5] is less than 1e-05 s⁻¹.
Take A14C A15C G62U G63C: the “self-cleavage kobs at 40 uM GlcN6P” value with glucosamine-6-phosphate [1] was less than 1e-05 s⁻¹.
Consider C11A C70G, for which, in the data set with glucosamine-6-phosphate [1], the “self-cleavage kobs at 40 uM GlcN6P” value was found to be 2.86e-05 ± 1.2e-05 s⁻¹. Further, the “self-cleavage kobs at 160 uM GlcN6P” value with glucosamine-6-phosphate [3] came out at 4.84e-05 ± 2e-05 s⁻¹. Also, in the data set with glucosamine-6-phosphate [4], the “self-cleavage kobs at 640 uM GlcN6P” value stood at 0.00013 ± 2.5e-05 s⁻¹. Moreover, the “self-cleavage kobs at 2500 uM GlcN6P” value in the data set with glucosamine-6-phosphate [5] worked out at 5.3e-05 ± 1.3e-05 s⁻¹. Further, the “self-cleavage kobs at 10000 uM GlcN6P” value with glucosamine-6-phosphate [2] was found to be 3.06e-05 ± 1.1e-05 s⁻¹.
For G62U U65G, the “self-cleavage kobs at 40 uM GlcN6P” value in the data set with glucosamine-6-phosphate [1] is less than 1e-05 s⁻¹. Also, the “self-cleavage kobs at 160 uM GlcN6P” value in the data set with glucosamine-6-phosphate [3] is less than 1e-05 s⁻¹. The “self-cleavage kobs at 640 uM GlcN6P” value with glucosamine-6-phosphate [4] was less than 1e-05 s⁻¹. The “self-cleavage kobs at 2500 uM GlcN6P” value with glucosamine-6-phosphate [5] was less than 1e-05 s⁻¹. Besides, the “self-cleavage kobs at 10000 uM GlcN6P” value in the data set with glucosamine-6-phosphate [2] is less than 1e-05 s⁻¹.
With G37U A39G G62A C68A, the “self-cleavage kobs at 40 uM GlcN6P” value with glucosamine-6-phosphate [1] was less than 1e-05 s⁻¹. Further, the “self-cleavage kobs at 10000 uM GlcN6P” value with glucosamine-6-phosphate [2] is less than 1e-05 s⁻¹.
In the case of G29C G32U C34A C50G U65G C68G, the “self-cleavage kobs at 40 uM GlcN6P” value in the data set with glucosamine-6-phosphate [1] amounted to 8.78e-05 ± 3.1e-05 s⁻¹. Further, the “self-cleavage kobs at 160 uM GlcN6P” value in the data set with glucosamine-6-phosphate [3] is 0.000304 ± 5.8e-05 s⁻¹. The “self-cleavage kobs at 640 uM GlcN6P” value with glucosamine-6-phosphate [4] is 8.65e-05 ± 2.9e-05 s⁻¹. For the same variant, the “self-cleavage kobs at 2500 uM GlcN6P” value with glucosamine-6-phosphate [5] came to 0.000304 ± 7.2e-05 s⁻¹. The “self-cleavage kobs at 10000 uM GlcN6P” value with glucosamine-6-phosphate [2] was 4.42e-05 ± 1.7e-05 s⁻¹.
The like results for A39G C70U were, in that order, 0.00118 ± 0.00015 s⁻¹, 0.0014 ± 0.0004 s⁻¹, 0.00828 ± 0.0017 s⁻¹, 0.0127 ± 0.0053 s⁻¹ and 0.022 ± 0.0045 s⁻¹.
As for A15C G38C A52G, the “self-cleavage kobs at 40 uM GlcN6P” value with glucosamine-6-phosphate [1] was less than 1e-05 s⁻¹. Besides, the “self-cleavage kobs at 2500 uM GlcN6P” value in the data set with glucosamine-6-phosphate [5] was less than 1e-05 s⁻¹.
In the case of G9C G37A G60C U65A, the “self-cleavage kobs at 40 uM GlcN6P” value with glucosamine-6-phosphate [1] is less than 1e-05 s⁻¹. For the same variant, the “self-cleavage kobs at 2500 uM GlcN6P” value in the data set with glucosamine-6-phosphate [5] was less than 1e-05 s⁻¹.
For G13A A64U, the “self-cleavage kobs at 40 uM GlcN6P” value with glucosamine-6-phosphate [1] is less than 1e-05 s⁻¹. In addition, the “self-cleavage kobs at 640 uM GlcN6P” value in the data set with glucosamine-6-phosphate [4] is less than 1e-05 s⁻¹. Besides, the “self-cleavage kobs at 2500 uM GlcN6P” value in the data set with glucosamine-6-phosphate [5] was less than 1e-05 s⁻¹. In addition, the “self-cleavage kobs at 10000 uM GlcN6P” value in the data set with glucosamine-6-phosphate [2] is less than 1e-05 s⁻¹.
With A6G U31C C71U, the “self-cleavage kobs at 40 uM GlcN6P” value in the data set with glucosamine-6-phosphate [1] was less than 1e-05 s⁻¹.
C10U U47A G62U A64U U69A: in the data set with glucosamine-6-phosphate [1], the “self-cleavage kobs at 40 uM GlcN6P” value is less than 1e-05 s⁻¹.
A6G G60U C68A: in the data set with glucosamine-6-phosphate [1], the “self-cleavage kobs at 40 uM GlcN6P” value was less than 1e-05 s⁻¹. Moreover, in the data set with glucosamine-6-phosphate [4], the “self-cleavage kobs at 640 uM GlcN6P” value is less than 1e-05 s⁻¹. In the data set with glucosamine-6-phosphate [5], the “self-cleavage kobs at 2500 uM GlcN6P” value is less than 1e-05 s⁻¹. In the data set with glucosamine-6-phosphate [2], the “self-cleavage kobs at 10000 uM GlcN6P” value is less than 1e-05 s⁻¹.
Take A6G G38C: the “self-cleavage kobs at 40 uM GlcN6P” value with glucosamine-6-phosphate [1] was less than 1e-05 s⁻¹. The “self-cleavage kobs at 160 uM GlcN6P” value in the data set with glucosamine-6-phosphate [3] was less than 1e-05 s⁻¹. The “self-cleavage kobs at 640 uM GlcN6P” value with glucosamine-6-phosphate [4] is less than 1e-05 s⁻¹. The “self-cleavage kobs at 2500 uM GlcN6P” value with glucosamine-6-phosphate [5] was less than 1e-05 s⁻¹. In addition, the “self-cleavage kobs at 10000 uM GlcN6P” value in the data set with glucosamine-6-phosphate [2] is less than 1e-05 s⁻¹.
On to A6C G32A C34U U54G C58U G66A, for which, in the data set with glucosamine-6-phosphate [1], the “self-cleavage kobs at 40 uM GlcN6P” value was less than 1e-05 s⁻¹. Besides, in the data set with glucosamine-6-phosphate [2], the “self-cleavage kobs at 10000 uM GlcN6P” value is less than 1e-05 s⁻¹.
In the case of C10U G43C, the “self-cleavage kobs at 40 uM GlcN6P” value with glucosamine-6-phosphate [1] was less than 1e-05 s⁻¹. The “self-cleavage kobs at 160 uM GlcN6P” value in the data set with glucosamine-6-phosphate [3] was less than 1e-05 s⁻¹. Further, the “self-cleavage kobs at 640 uM GlcN6P” value with glucosamine-6-phosphate [4] is less than 1e-05 s⁻¹. In addition, the “self-cleavage kobs at 2500 uM GlcN6P” value with glucosamine-6-phosphate [5] is less than 1e-05 s⁻¹. Also, the “self-cleavage kobs at 10000 uM GlcN6P” value with glucosamine-6-phosphate [2] is less than 1e-05 s⁻¹.
As to G37U G63A, in the data set with glucosamine-6-phosphate [1], the “self-cleavage kobs at 40 uM GlcN6P” value was less than 1e-05 s⁻¹. For the same variant, the “self-cleavage kobs at 160 uM GlcN6P” value with glucosamine-6-phosphate [3] is less than 1e-05 s⁻¹. Besides, the “self-cleavage kobs at 640 uM GlcN6P” value with glucosamine-6-phosphate [4] was less than 1e-05 s⁻¹. In addition, the “self-cleavage kobs at 2500 uM GlcN6P” value with glucosamine-6-phosphate [5] is less than 1e-05 s⁻¹. Also, in the data set with glucosamine-6-phosphate [2], the “self-cleavage kobs at 10000 uM GlcN6P” value was less than 1e-05 s⁻¹.
